Experimental data published in patent publication US20240400654A1.
Positions count from the first letter of the chain named. Names and notes keep the numbering of the source. Values joined by “and” are separate entries in the source; they are usually repeats but may differ in a detail not shown here. Equal entries are not always repeated.

B1: KB001 mouse Fab VL T24A (Fab, V domains shown)
VH: EVQLKQSGPGLVAPSQSLSITCTVSGFSLSIYSVHWVRQPPGKGLEWLGMIWGGGSSDYNSALKSRLSISKDNSKSQVFLKMNSLQTDDTAMYYCARNGNFYAMDYWGQGTSVTVSS
VL: QIVLTQSPAIMSASLGERVTMTCAASSSVSSSFLHWYQQKPGSSPQLWIYSTSNLASGVPARFSGSGSGTSYSLTISSMEAEDAATYYCHQYHHSPYIYTFGGGTKLEIK
B2: KB001 mouse Fab VL T24Q (Fab, V domains shown)
VH: B1 VH
VL: B1 VL with A24Q
B3: KB001 mouse Fab VL T24N/G67D (Fab, V domains shown)
VH: B1 VH
VL: B1 VL with A24N, G67D
B4: KB001 mouse Fab VL T24G (Fab, V domains shown)
VH: B1 VH
VL: B1 VL with A24G
B5: KB001 mouse Fab VL T24M (Fab, V domains shown)
VH: B1 VH
VL: B1 VL with A24M
B6: KB001 mouse Fab VL T24N (Fab, V domains shown)
VH: B1 VH
VL: B1 VL with A24N
B7: KB001 mouse Fab VL A25Y (Fab, V domains shown)
VH: B1 VH
VL: B1 VL with A24T, A25Y
B8: KB001 mouse Fab VL A25G (Fab, V domains shown)
VH: B1 VH
VL: B1 VL with A24T, A25G
B9: KB001 mouse Fab VL A25P (Fab, V domains shown)
VH: B1 VH
VL: B1 VL with A24T, A25P
B10: KB001 mouse Fab VL A25V (Fab, V domains shown)
VH: B1 VH
VL: B1 VL with A24T, A25V
B11: KB001 mouse Fab VL A25E (Fab, V domains shown)
VH: B1 VH
VL: B1 VL with A24T, A25E
B12: KB001 mouse Fab VL S26G (Fab, V domains shown)
VH: B1 VH
VL: B1 VL with A24T, S26G
B13: KB001 mouse Fab VL S26P (Fab, V domains shown)
VH: B1 VH
VL: B1 VL with A24T, S26P
B14: KB001 mouse Fab VL S26T (Fab, V domains shown)
VH: B1 VH
VL: B1 VL with A24T, S26T
B15: KB001 mouse Fab VL S27H (Fab, V domains shown)
VH: B1 VH
VL: B1 VL with A24T, S27H
B16: KB001 mouse Fab VL S27N (Fab, V domains shown)
VH: B1 VH
VL: B1 VL with A24T, S27N
B17: KB001 mouse Fab VL S27Y (Fab, V domains shown)
VH: B1 VH
VL: B1 VL with A24T, S27Y
B18: KB001 mouse Fab VL S27L (Fab, V domains shown)
VH: B1 VH
VL: B1 VL with A24T, S27L
B19: KB001 mouse Fab VL S27V (Fab, V domains shown)
VH: B1 VH
VL: B1 VL with A24T, S27V
B20: KB001 mouse Fab VL S27W (Fab, V domains shown)
VH: B1 VH
VL: B1 VL with A24T, S27W
B21: KB001 mouse Fab VL S27K/S68Y (Fab, V domains shown)
VH: B1 VH
VL: B1 VL with A24T, S27K, S68Y
B22: KB001 mouse Fab VL S27M (Fab, V domains shown)
VH: B1 VH
VL: B1 VL with A24T, S27M
B23: KB001 mouse Fab VL S28M (Fab, V domains shown)
VH: B1 VH
VL: B1 VL with A24T, S28M
B24: KB001 mouse Fab VL S28T/S12R (Fab, V domains shown)
VH: B1 VH
VL: B1 VL with S12R, A24T, S28T
B25: KB001 mouse Fab VL S28H (Fab, V domains shown)
VH: B1 VH
VL: B1 VL with A24T, S28H
B26: KB001 mouse Fab VL S28N (Fab, V domains shown)
VH: B1 VH
VL: B1 VL with A24T, S28N
B27: KB001 mouse Fab VL S28D (Fab, V domains shown)
VH: B1 VH
VL: B1 VL with A24T, S28D
B28: KB001 mouse Fab VL V29I (Fab, V domains shown)
VH: B1 VH
VL: B1 VL with A24T, V29I
B29: KB001 mouse Fab VL V29L (Fab, V domains shown)
VH: B1 VH
VL: B1 VL with A24T, V29L
B30: KB001 mouse Fab VL S30H (Fab, V domains shown)
VH: B1 VH
VL: B1 VL with A24T, S30H
B31: KB001 mouse Fab VL S30R (Fab, V domains shown)
VH: B1 VH
VL: B1 VL with A24T, S30R
B32: KB001 mouse Fab VL S30T (Fab, V domains shown)
VH: B1 VH
VL: B1 VL with A24T, S30T
B33: KB001 mouse Fab VL S30E (Fab, V domains shown)
VH: B1 VH
VL: B1 VL with A24T, S30E
B34: KB001 mouse Fab VL S30D (Fab, V domains shown)
VH: B1 VH
VL: B1 VL with A24T, S30D
B35: KB001 mouse Fab VL S30W (Fab, V domains shown)
VH: B1 VH
VL: B1 VL with A24T, S30W
B36: KB001 mouse Fab VL S30L (Fab, V domains shown)
VH: B1 VH
VL: B1 VL with A24T, S30L
B37: KB001 mouse Fab VL S30I (Fab, V domains shown)
VH: B1 VH
VL: B1 VL with A24T, S30I
B38: KB001 mouse Fab VL S30M (Fab, V domains shown)
VH: B1 VH
VL: B1 VL with A24T, S30M
B39: KB001 mouse Fab VL S30K (Fab, V domains shown)
VH: B1 VH
VL: B1 VL with A24T, S30K
B40: KB001 mouse Fab VL S31Q (Fab, V domains shown)
VH: B1 VH
VL: B1 VL with A24T, S31Q
B41: KB001 mouse Fab VL S31W (Fab, V domains shown)
VH: B1 VH
VL: B1 VL with A24T, S31W
B42: KB001 mouse Fab VL S31D (Fab, V domains shown)
VH: B1 VH
VL: B1 VL with A24T, S31D

What follows are binders tested against HRgpA-6H (Porphyromonas gingivalis) (UniProt P28784) (assay: ELISA, coated HRgpA-6H).
Chain of UniProt P28784 (P28784 228-860 limits assumed): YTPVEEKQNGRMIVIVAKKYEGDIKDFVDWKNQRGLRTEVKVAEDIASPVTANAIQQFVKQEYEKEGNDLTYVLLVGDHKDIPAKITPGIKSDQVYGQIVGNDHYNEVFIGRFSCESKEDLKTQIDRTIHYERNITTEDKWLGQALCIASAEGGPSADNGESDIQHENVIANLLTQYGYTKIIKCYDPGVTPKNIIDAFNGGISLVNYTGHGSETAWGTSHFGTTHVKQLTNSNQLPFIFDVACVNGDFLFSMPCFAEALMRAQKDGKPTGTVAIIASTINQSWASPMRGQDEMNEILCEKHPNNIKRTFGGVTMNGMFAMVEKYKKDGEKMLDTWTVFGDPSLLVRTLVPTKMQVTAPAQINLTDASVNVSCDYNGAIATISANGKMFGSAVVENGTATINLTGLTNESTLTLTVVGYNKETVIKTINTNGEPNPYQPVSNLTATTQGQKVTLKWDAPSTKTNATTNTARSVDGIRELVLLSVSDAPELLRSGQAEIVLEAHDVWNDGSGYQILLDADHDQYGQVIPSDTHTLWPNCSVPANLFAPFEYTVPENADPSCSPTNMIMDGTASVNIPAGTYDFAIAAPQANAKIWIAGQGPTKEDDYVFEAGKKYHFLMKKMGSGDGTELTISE
Work on B1 yielded an OD450 nm of 0.757 and a Ratio OD(Variant)/OD(WT) of 0.984.
Work on B2 yielded an OD450 nm of 0.765 and a Ratio OD(Variant)/OD(WT) of 0.995.
In the case of B3, the OD450 nm is reported as 0.755 and the Ratio OD(Variant)/OD(WT) is reported as 0.982.
In the case of B4, the OD450 nm is reported as 0.686 and 0.735 and the Ratio OD(Variant)/OD(WT) is reported as 0.892 and 0.956.
With B5 the OD450 nm was 0.75 and 0.797 and the Ratio OD(Variant)/OD(WT) was 0.975 and 1.04.
B6 was tested, and the OD450 nm was 0.715 and 0.8 and the Ratio OD(Variant)/OD(WT) was 0.93 and 1.04.
With B7 the OD450 nm was 0.755 and 0.757 and the Ratio OD(Variant)/OD(WT) was 0.964 and 0.967.
With B8 the OD450 nm was 0.668 and 0.699 and 0.673 and the Ratio OD(Variant)/OD(WT) was 0.853 and 0.893 and 0.86.
In the case of B9, the OD450 nm is reported as 0.742 and 0.766 and 0.749 and the Ratio OD(Variant)/OD(WT) is reported as 0.948 and 0.978 and 0.957.
Work on B10 yielded an OD450 nm of 0.768 and a Ratio OD(Variant)/OD(WT) of 0.981.
For B11, the OD450 nm was 0.655 and the Ratio OD(Variant)/OD(WT) was 0.837.
With B12 the OD450 nm was 0.73 and the Ratio OD(Variant)/OD(WT) was 0.932.
B13 was tested, and the OD450 nm was 0.644 and 0.677 and the Ratio OD(Variant)/OD(WT) was 0.822 and 0.865.
B14 was tested, and the OD450 nm was 0.761 and the Ratio OD(Variant)/OD(WT) was 0.972.
For B15, the OD450 nm was 0.664 and 0.63 and 0.726 and the Ratio OD(Variant)/OD(WT) was 0.885 and 0.839 and 0.967.
In the case of B16, the OD450 nm is reported as 0.675 and 0.724 and 0.64 and the Ratio OD(Variant)/OD(WT) is reported as 0.899 and 0.965 and 0.853.
Binder B17 has an OD450 nm of 0.617 and a Ratio OD(Variant)/OD(WT) of 0.822.
In the case of B18, the OD450 nm is reported as 0.649 and the Ratio OD(Variant)/OD(WT) is reported as 0.865.
B19 was tested, and the OD450 nm was 0.645 and 0.646 and the Ratio OD(Variant)/OD(WT) was 0.859 and 0.861.
Binder B20 has an OD450 nm of 0.601 and a Ratio OD(Variant)/OD(WT) of 0.801.
B21 gave an OD450 nm of 0.736 and a Ratio OD(Variant)/OD(WT) of 0.981.
With B22 the OD450 nm was 0.709 and the Ratio OD(Variant)/OD(WT) was 0.945.
With B23 the OD450 nm was 0.706 and 0.675 and the Ratio OD(Variant)/OD(WT) was 0.941 and 0.899.
Binder B24 has an OD450 nm of 0.747 and a Ratio OD(Variant)/OD(WT) of 0.995.
Binder B25 has an OD450 nm of 0.719 and a Ratio OD(Variant)/OD(WT) of 0.958.
With B26 the OD450 nm was 0.743 and the Ratio OD(Variant)/OD(WT) was 0.99.
In the case of B27, the OD450 nm is reported as 0.745 and 0.722 and the Ratio OD(Variant)/OD(WT) is reported as 0.993 and 0.962.
For B28, the OD450 nm was 0.853 and the Ratio OD(Variant)/OD(WT) was 0.99.
With B29 the OD450 nm was 0.751 and the Ratio OD(Variant)/OD(WT) was 0.871.
For B30, the OD450 nm was 0.808 and 0.747 and the Ratio OD(Variant)/OD(WT) was 0.937 and 0.867.
With B31 the OD450 nm was 0.778 and 0.793 and 0.802 and the Ratio OD(Variant)/OD(WT) was 0.903 and 0.92 and 0.93.
In the case of B32, the OD450 nm is reported as 0.838 and 0.817 and the Ratio OD(Variant)/OD(WT) is reported as 0.972 and 0.948.
Work on B33 yielded an OD450 nm of 0.813 and a Ratio OD(Variant)/OD(WT) of 0.943.
In the case of B34, the OD450 nm is reported as 0.702 and 0.723 and the Ratio OD(Variant)/OD(WT) is reported as 0.814 and 0.839.
With B35 the OD450 nm was 0.823 and the Ratio OD(Variant)/OD(WT) was 0.955.
B36 showed an OD450 nm of 0.813 and a Ratio OD(Variant)/OD(WT) of 0.943.
Work on B37 yielded an OD450 nm of 0.86 and a Ratio OD(Variant)/OD(WT) of 0.998.
In the case of B38, the OD450 nm is reported as 0.818 and the Ratio OD(Variant)/OD(WT) is reported as 0.949.
Binder B39 has an OD450 nm of 0.77 and a Ratio OD(Variant)/OD(WT) of 0.893.
In the case of B40, the OD450 nm is reported as 0.83 and 0.745 and 0.782 and the Ratio OD(Variant)/OD(WT) is reported as 0.982 and 0.882 and 0.925.
In the case of B41, the OD450 nm is reported as 0.808 and the Ratio OD(Variant)/OD(WT) is reported as 0.956.
Binder B42 has an OD450 nm of 0.762 and a Ratio OD(Variant)/OD(WT) of 0.902.
